The results in this text go back to publication PMC11386428.

For assay [1], the target named is tau_(1N4R), full-length 1N4R tau, labelled with Alexa Fluor 488 (human (by the printed UniProt entry)). The assay can be described thus: fluorescence correlation spectroscopy (FCS); ~20 nM fluorescent protein (Alexa 488-labelled tau construct or eGFP) with unlabelled αS seeds at 20, 60 or 100 nM (monomer units); 20°C; 50 mM Na2HPO4, 50 mM NaCl pH 7.0; two-component diffusion fit, medians of type III curves.

Assay [2] has as its target tau4R, the microtubule-binding region with R1-R4, labelled with Alexa Fluor 488 (human (by the printed UniProt entry)). The description is as above.

On to “αS_(1-100) seeds (sonicated fibrils of N-terminally acetylated αS_(1-100)) (from UniProt P37840 1-100) (complex)”, for which, in assay [1], the Q (brightness of bound tau relative to monomer tau) at 20 nM αS (1-100) seeds is 2.3, the Q (brightness of bound tau relative to monomer tau) at 60 nM αS (1-100) seeds came to 2, the Q (brightness of bound tau relative to monomer tau) at 100 nM αS (1-100) seeds turned out to be 2.7 and the median fB (fraction of tau with τD2) at 20 nM αS (1-100) seeds worked out at 0.055. Further, in assay [1], the median fB (fraction of tau with τD2) at 60 nM αS (1-100) seeds came out at 0.053, the median fB (fraction of tau with τD2) at 100 nM αS (1-100) seeds was 0.16, the median type III τ (D2app) at 20 nM αS (1-100) seeds was determined as 2.8 ms and the median type III τ (D2app) at 60 nM αS (1-100) seeds stood at 2.3 ms. This substance also registered a median type III τ (D2app) at 100 nM αS (1-100) seeds in assay [1] of 2.2 ms. Further, in assay [2], the Q (brightness of bound tau relative to monomer tau) at 20 nM αS (1-100) seeds was determined as 1, the Q (brightness of bound tau relative to monomer tau) at 60 nM αS (1-100) seeds stood at 1, the Q (brightness of bound tau relative to monomer tau) at 100 nM αS (1-100) seeds was found to be 1 and the median fB (fraction of tau with τD2) at 20 nM αS (1-100) seeds turned out to be 0.023. In assay [2], this substance showed a median fB (fraction of tau with τD2) at 60 nM αS (1-100) seeds of 0.11, a median fB (fraction of tau with τD2) at 100 nM αS (1-100) seeds of 0.11, a median type III τ (D2app) at 20 nM αS (1-100) seeds of 2.1 ms and a median type III τ (D2app) at 60 nM αS (1-100) seeds of 1.8 ms. In addition, in assay [2], the median type III τ (D2app) at 100 nM αS (1-100) seeds was 2.8 ms.
